In patent publication US20140369964A1 (GLYTECH, published 2014):
Blank lines part the entries; values can stand above or below the binder they belong to.

Biological target: T1, IFN-α/β receptor 2 (UniProt P48551 27-243, limits assumed)
T1 sequence (looked up): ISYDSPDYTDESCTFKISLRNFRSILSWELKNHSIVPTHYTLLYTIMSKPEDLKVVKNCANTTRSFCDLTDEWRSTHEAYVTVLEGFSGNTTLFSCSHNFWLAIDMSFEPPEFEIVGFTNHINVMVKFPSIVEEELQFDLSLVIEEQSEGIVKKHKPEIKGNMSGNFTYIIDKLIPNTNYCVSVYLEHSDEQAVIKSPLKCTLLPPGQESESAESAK
Assay: SPR (ProteOn XPR36), receptor amine-coupled to GLM chip, IFN-β as analyte at 0.31-25 nM
Protocol: The binding affinity of the non-heated or heat-treated chemically synthesized IFN-β against IFN-α/β receptor 2 was measured with ProteOn XPR36 (Bio-rad) employing SPR (Surface Plasmon Resonance technology).
Specifically, 10 μg/mL of IFN-α/β receptor 2 (10 mM acetic acid buffer, pH 4.5) was fixed to a GLM chip (Bio-rad) according to instructions by employing an amine coupling kit (Bio-rad) and flowing 0.005% Tween 20/PBS at a flow rate of 30 μL/min. The non-heated disialo sugar chain attached polypeptide (10) prepared in Example 3, or the heat-treated disialo sugar chain attached polypeptide obtained by subjecting the disialo sugar chain attached polypeptide heat-treated in the above 9-1. to the de-Acm step, the benzyl group deprotection step, and the folding step described in the above 3-4.-3-6. were adjusted to 0.31-25 nM with 0.1% BSA and 2 mM EDTA/PBS, and added to the chip at a flow rate 50 of μL/min. The analysis with glycosylated polypeptide (10) was carried out at each of five concentrations of 0.31 nM, 0.93 nM, 2.8 nM, 8.3 nM, and 25 nM. The binding constant (ka), the dissociation constant (kd), and the binding dissociation constant (Kd) were analyzed with ProteOn Manager software. The results thereof are shown in FIG. 38, FIG. 39, and Table 1.

Kd: 0.49 nM
koff: 0.0027 s⁻¹
kon: 5.5e+06 M⁻¹ s⁻¹
B1: non-heated disialo sugar chain attached polypeptide (10) (ligand)
chain: MSYNLLGFLQRSSNFQCQKLLWQLNGRLEYCLKDRMNFDIPEEIKQLQQFQKEDAALTIYEMLQNIFAIFRQDSSSTGWNETIVENLLANVYHQINHLKTVLEEKLEKEDFTRGKLMSSLHLKRYYGRILHYLKAKEYSHCAWTIVRVEILRNFYFINRLTGYLRN
modifications: disialo sugar chain on Asn at position 80; folded, with a mass loss of 2 Da after folding (disulfide bond, Cys 31-Cys 141 in interferon β)
notes: also called glycosylated polypeptide (10); disialo IFN-β

Kd: 0.53 nM
koff: 0.0023 s⁻¹
kon: 4.3e+06 M⁻¹ s⁻¹
B2: heat-treated disialo sugar chain attached polypeptide (ligand)
chain: B1 chain
modifications: disialo sugar chain on Asn at position 80; folded as in step 3-6
notes: also called heat-treated chemically synthesized IFN-β
